# In the supplement of paper PMC10724198:
# ± gives the standard deviation of the averaged measurements.
# System: Saccharomyces cerevisiae
# Experiment: protein stability index of tFT-peptide fusion (C-terminal peptide) (PSI (0-1 scale)); higher = more stable (slower turnover)
# Conditions: genetic background: wild type; temperature: 30 C
# Protocol: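 Multiplexed protein stability (MPS) profiling in S. cerevisiae. Random 12-aa peptides (tFT-X12 library) are fused to the C-terminus of a sfGFP-mCherry tandem fluorescent timer, after mCherry and a GGGS linker. Cells are FACS-sorted into 8 mCherry/sfGFP bins and deep-sequenced. The protein stability index (PSI) is the read-weighted bin average, scaled from 0 (unstable) to 1 (stable). Only peptides with >10 reads are reported; cells were grown at 30 °C in SC-His with glucose.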
# 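Further: PSI is a weighted mean of sequencing reads over stability bins, variants kept only with over 10 reads, mCherry proximal and sfGFP distal, peptide attached via GGGS linker.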
row,Sequence,protein stability index
1,GIPCRCVCLNQW,0.6961 ± 0.0017
2,GIPIQKLEYMCK,0.669 ± 0.019
3,GIPPVLFAPPPL,0.696 ± 0.022
4,GIQSGGGGGKGG,0.668 ± 0.015
5,GIRGECEFHSCD,0.685 ± 0.015
6,GIRKRIEKKKIK,0.7 ± 0.051
7,GISGGTVSILGV,0.704 ± 0.0096
8,GKAIKRPIGIRG,0.683 ± 0.019
9,GKALPALPSGLL,0.657 ± 0.025
10,GKECLIRKSHDG,0.674 ± 0.011
11,GKEKGRAEGRDG,0.701 ± 0.023
12,GKILKGAASPSC,0.72 ± 0.019
13,GKITKNKDNIET,0.686 ± 0.021
14,GKKGKEKGEEKR,0.716 ± 0.028
15,GKKKHRSNPRRS,0.725 ± 0.067
16,GKKKIDDKGRWI,0.678 ± 0.14
17,GKNAEENNIVRE,0.614 ± 0.083
18,GKNKRKTYGKRE,0.722 ± 0.035
19,GKQKKKHRRNLK,0.743 ± 0.12
20,GKQNQEKNKKTS,0.696 ± 0.045
21,GKRGRDYIKVRE,0.6448 ± 0.006
22,GKRTVLFTRCRQ,0.5888 ± 0.0055
23,GKTRKGKKRKRK,0.666 ± 0.14
24,GKTRLIEDTQTT,0.67 ± 0.019
25,GKVCVLKLSPWI,0.814 ± 0.16
26,GKVGSLGLVLSP,0.682 ± 0.096

row,Sequence,protein stability index
1,GLAFVGWGPRFR,0.71 ± 0.028
2,GLAYPAGALSLL,0.684 ± 0.1
3,GLCGVCVLKFPR,0.759 ± 0.15
4,GLCLLSKDGCLV,0.669 ± 0.055
5,GLCRLLEILKLR,0.63 ± 0.054
6,GLCSMRLYKPRI,0.634 ± 0.014
7,GLEIGMSQVSMG,0.645 ± 0.036
8,GLEVGVRGVMGC,0.688 ± 0.033
9,GLGGPLSLVYLF,0.629 ± 0.037
10,GLGLASSGWGRG,0.733 ± 0.018
11,GLGLVSWEAGGG,0.702 ± 0.017
12,GLGSSVLQVGVR,0.689 ± 0.056
13,GLGVPCDFRVVA,0.694 ± 0.013
14,GLGVSLLVGGEA,0.6572 ± 0.0028
15,GLQFDPALPLPP,0.739 ± 0.022
16,GLRAAGCRAVGG,0.672 ± 0.025
17,GLRGFCGVIEFF,0.721 ± 0.14
18,GLRGRRRAAGRV,0.726 ± 0.06
19,GLRLLVLPDSWS,0.682 ± 0.056
20,GLSSPLPLALPV,0.649 ± 0.023
21,GLSVVFRIPPGS,0.735 ± 0.043
22,GLVLVGGGGGAV,0.577 ± 0.051
23,GLVWLGFWCYPL,0.55646 ± 6.9e-05
24,GLWAEGCGGEVV,0.653 ± 0.0083
25,GLWSGWGMVGCV,0.737 ± 0.047
26,GLYSIAGGSFGE,0.721 ± 0.026

row,Sequence,protein stability index
1,GLYYRGPSKKER,0.73 ± 0.02
2,GMFDCIPPGTIP,0.741 ± 0.094
3,GMGESGAGMVGW,0.727 ± 0.013
4,GMGRGRGNANEG,0.622 ± 0.045
5,GMLCRAGPVRNV,0.732 ± 0.011
6,GMNCDMCRIRTL,0.683 ± 0.0088
7,GMSFNVPLWGSI,0.69 ± 0.086
8,GMVEVSTKTKRR,0.719 ± 0.0092
9,GMVSPVRIVSRR,0.654 ± 0.024
10,GMWFRIGHCRFA,0.684 ± 0.058
11,GMWGGLSPFLGQ,0.691 ± 0.015
12,GNDRRKNNICEI,0.701 ± 0.034
13,GNLPQIIYSKVQ,0.609 ± 0.037
14,GNPRRNLSTSSR,0.712 ± 0.02
15,GNRNGEFINTQI,0.665 ± 0.027
16,GNRYLCIEVTWV,0.48 ± 0.055
17,GPEYPFRCRRLF,0.665 ± 0.039
18,GPFPPCVVPSSS,0.643 ± 0.048
19,GPFWPGRFGFLC,0.616 ± 0.0078
20,GPGGPGGGWPLQ,0.687 ± 0.024
21,GPGSGWWVSCSL,0.751 ± 0.04
22,GPKGLLKATSLS,0.659 ± 0.064
23,GPLVQVTSYSRY,0.691 ± 0.0077
24,GPNRCPGRPVTP,0.703 ± 0.032
25,GPPFPPLPLPPP,0.658 ± 0.079
26,GPPHSGPIYLFP,0.6748 ± 0.0043

row,Sequence,protein stability index
1,GPPPPPPPRPPP,0.634 ± 0.007
2,GPRLSGGLGGVG,0.637 ± 0.045
3,GPRRGRSGSGWM,0.6499 ± 0.0057
4,GPSKTGRPLSGT,0.713 ± 0.026
5,GPTPHQPRMDPR,0.693 ± 0.011
6,GPTRAIIFERRY,0.741 ± 0.17
7,GPVVHSAPRVRL,0.686 ± 0.069
8,GPWAGVRAEVKA,0.6505 ± 0.0047
9,GQGEGRGKIKKG,0.782 ± 0.037
10,GQPLLVCMSGFW,0.684 ± 0.01
11,GQSSYFRRFRVG,0.6185 ± 0.0031
12,GRAGQPCEGALP,0.652 ± 0.021
13,GRCLGREGVCGL,0.673 ± 0.018
14,GRCLSGRVVGGG,0.7145 ± 0.0014
15,GRCLWGRVGSVM,0.707 ± 0.018
16,GRCPPPSPPHPL,0.68 ± 0.038
17,GRCRPATLRGPG,0.656 ± 0.012
18,GREEDLVAPPFN,0.715 ± 0.054
19,GRFCGGAVSGGM,0.634 ± 0.041
20,GRFSHRCGGGVW,0.622 ± 0.046
21,GRFVAPDSHPVG,0.682 ± 0.021
22,GRGAGRATQSPP,0.597 ± 0.064
23,GRGCRGKDWWLW,0.74 ± 0.055
24,GRGEEKRDGGRR,0.673 ± 0.059
25,GRGEKKKGAKKI,0.728 ± 0.028
26,GRGERDIGVNQS,0.6792 ± 0.0031

row,Sequence,protein stability index
1,GRGFGVILGGCS,0.692 ± 0.02
2,GRGGEGQGKRRE,0.668 ± 0.034
3,GRGSAVTGVYGV,0.664 ± 0.059
4,GRHRGNVWGAVA,0.701 ± 0.043
5,GRKAEAEASLFS,0.643 ± 0.1
6,GRKKKRREEKDT,0.609 ± 0.027
7,GRKKTSAGGNQE,0.702 ± 0.11
8,GRKLLAGPDGDI,0.658 ± 0.039
9,GRLSQWVPNGRA,0.681 ± 0.076
10,GRNAGPSLLPAL,0.684 ± 0.038
11,GRNDYYTRKISV,0.728 ± 0.17
12,GRNMQVTVQNRG,0.735 ± 0.02
13,GRPSSMCTGWKV,0.74 ± 0.054
14,GRPYPPHFQHPS,0.773 ± 0.022
15,GRRRCGGGVEVC,0.668 ± 0.014
16,GRSCSSWSSWGF,0.716 ± 0.01
17,GRSGGVGVLWGG,0.728 ± 0.017
18,GRSGSGGTWELG,0.643 ± 0.039
19,GRSHVGGCGGEG,0.693 ± 0.035
20,GRSRAALASHIL,0.612 ± 0.058
21,GRTCCGGGVGFG,0.595 ± 0.033
22,GRTEMNRIETTS,0.699 ± 0.037
23,GRVRGVEGIGKG,0.663 ± 0.018
24,GRVVLRISCAQI,0.6144 ± 0.00074
25,GRVVVKTFRDFF,0.635 ± 0.064
26,GSAFIRFRSSFG,0.638 ± 0.022

row,Sequence,protein stability index
1,GSCTVLPPPGPP,0.724 ± 0.018
2,GSFGQLIIRYSS,0.568 ± 0.0088
3,GSFLGVRPGNVF,0.828 ± 0.055
4,GSGGGEVCGCGG,0.681 ± 0.048
5,GSGIFHPVDLGL,0.688 ± 0.02
6,GSGLEAGVRRWG,0.67 ± 0.016
7,GSGRGRETYIAK,0.67947 ± 0.0002
8,GSGRPARCVEGG,0.644 ± 0.03
9,GSGVGSRARRGR,0.695 ± 0.02
10,GSHGRLSWHVSR,0.7008 ± 0.00074
11,GSLEGGGSGGGW,0.6743 ± 0.0048
12,GSLFLRQHTLLR,0.645 ± 0.0077
13,GSLRRSHYLLRA,0.588 ± 0.086
14,GSLVGATVSKEC,0.63 ± 0.083
15,GSLWGAFFRGLL,0.688 ± 0.04
16,GSLWGGFFRGLL,0.70105 ± 0.00018
17,GSMCYRTVTNLR,0.593 ± 0.017
18,GSMVWVRCGLER,0.634 ± 0.022
19,GSNPYNRHLINI,0.693 ± 0.02
20,GSPALGSCSWSR,0.627 ± 0.057
21,GSPCPIVLICGL,0.504 ± 0.034
22,GSQHSPRPFFFQ,0.72 ± 0.038
23,GSQLFESVVVRV,0.679 ± 0.061
24,GSQPSQRRSSGA,0.679 ± 0.014
25,GSRAWERSERVR,0.649 ± 0.084
